Measured values as given in publication doi:10.1101/791277.

What was measured:
p85α nSH2, 325-430 = p85α nSH2, 325-430 (UniProt P27986); assay: fluorescence polarization titration; conditions: reference: unphosphorylated p85β peptide; sites Y599
p85β nSH2, 312-425 = p85β nSH2, 312-425 (UniProt O08908); assay: fluorescence polarization titration; conditions: reference: unphosphorylated p85β peptide; sites Y599
p85β nSH2, 312-425, sequence (O08908 whole entry, looked up, tested part not stated): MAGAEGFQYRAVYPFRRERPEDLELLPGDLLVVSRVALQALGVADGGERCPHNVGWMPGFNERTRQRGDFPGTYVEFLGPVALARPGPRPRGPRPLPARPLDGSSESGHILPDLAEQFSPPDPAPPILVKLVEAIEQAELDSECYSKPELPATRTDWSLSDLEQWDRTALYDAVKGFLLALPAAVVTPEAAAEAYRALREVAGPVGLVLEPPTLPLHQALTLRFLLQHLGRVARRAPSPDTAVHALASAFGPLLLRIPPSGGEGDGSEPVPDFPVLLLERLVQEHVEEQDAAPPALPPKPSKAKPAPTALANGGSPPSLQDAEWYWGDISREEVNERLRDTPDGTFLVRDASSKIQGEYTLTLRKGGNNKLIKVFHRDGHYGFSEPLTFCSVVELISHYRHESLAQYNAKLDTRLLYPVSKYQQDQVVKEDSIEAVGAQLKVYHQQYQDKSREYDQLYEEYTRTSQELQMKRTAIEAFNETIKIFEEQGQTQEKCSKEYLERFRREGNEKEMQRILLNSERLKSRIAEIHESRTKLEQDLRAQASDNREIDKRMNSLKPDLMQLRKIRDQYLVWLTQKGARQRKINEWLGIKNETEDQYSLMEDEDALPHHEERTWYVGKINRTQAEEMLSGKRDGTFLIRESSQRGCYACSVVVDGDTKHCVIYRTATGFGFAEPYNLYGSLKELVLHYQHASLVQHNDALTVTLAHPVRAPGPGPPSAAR

p85α nSH2, 325-430, sequence (P27986 whole entry, looked up, tested part not stated): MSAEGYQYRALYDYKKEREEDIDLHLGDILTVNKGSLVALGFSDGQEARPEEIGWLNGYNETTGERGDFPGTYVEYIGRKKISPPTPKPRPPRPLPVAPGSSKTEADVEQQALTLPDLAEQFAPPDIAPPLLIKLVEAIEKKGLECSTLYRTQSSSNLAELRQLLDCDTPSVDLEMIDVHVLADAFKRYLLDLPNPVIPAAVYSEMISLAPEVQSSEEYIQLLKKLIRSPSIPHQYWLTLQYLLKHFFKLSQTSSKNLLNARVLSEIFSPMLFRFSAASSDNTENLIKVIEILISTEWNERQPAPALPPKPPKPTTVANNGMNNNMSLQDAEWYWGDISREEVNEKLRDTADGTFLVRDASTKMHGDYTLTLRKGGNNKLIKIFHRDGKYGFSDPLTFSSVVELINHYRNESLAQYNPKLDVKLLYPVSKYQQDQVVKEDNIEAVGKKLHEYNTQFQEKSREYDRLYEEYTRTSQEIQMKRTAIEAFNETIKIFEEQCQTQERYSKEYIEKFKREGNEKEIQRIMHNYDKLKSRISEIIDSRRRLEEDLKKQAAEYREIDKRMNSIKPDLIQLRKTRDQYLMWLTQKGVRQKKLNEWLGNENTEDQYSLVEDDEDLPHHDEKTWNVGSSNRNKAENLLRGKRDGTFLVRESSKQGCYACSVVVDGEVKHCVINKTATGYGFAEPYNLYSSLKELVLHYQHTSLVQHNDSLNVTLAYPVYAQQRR
p85β, sequence (O08908 312-425, change not shown): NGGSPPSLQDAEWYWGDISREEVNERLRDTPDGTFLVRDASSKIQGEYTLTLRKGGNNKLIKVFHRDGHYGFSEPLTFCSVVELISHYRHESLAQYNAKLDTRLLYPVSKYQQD

With “p85β (from UniProt O08908) phospho-p85β peptide” the “binding against the reference” value (p85α nSH2, 325-430) was “gained” and the “binding against the reference” value (p85β nSH2, 312-425) was “gained”.
